In IntAct's records for PubMed 16501113:

B1: Probable early E4 11 kDa protein (Human adenovirus C serotype 5 (HAdV-5)), P04489 (parent)
chain: MIRCLRLKVEGALEQIFTMAGLNIRDLLRDILRRWRDENYLGMVEGAGMFIEEIHPEGFSLYVHLDVRAVCLLEAIVQHLTNAIICSLAVEFDHATGGERVHLIDLHFEVLDNLLE

Variants of: B1
Settings: with PML

| Variant | effect of a mutation on the interaction |
| --- | --- |
| MIRCLRLKVAGALEQIFTMAGLNIRDLLRDILRRWRDENYLGMVEGAGMFIEEIHPEGFSLYVHLDVRAVCLLEAIVQHLTNAIICSLAVEFDHATGGERVHLIDLHFEVLDNLLE [E10A] | decreasing interaction |
| MIRCLRLKVEGALEQIFTMAGLNIRDLLRDILRRWRDENYLGMVEGAGMFIEEIHPEGFSLYVHLDVRAVCLLAAIVQHLTNAIICSLAVEFDHATGGERVHLIDLHFEVLDNLLE [E74A] | decreasing interaction |
| MIRALRLKVEGALEQIFTMAGLNIRDLLRDILRRWRDENYLGMVEGAGMFIEEIHPEGFSLYVHLDVRAVCLLEAIVQHLTNAIICSLAVEFDHATGGERVHLIDLHFEVLDNLLE [C4A] | decreasing interaction |
| MIRCLRLKVEGALEQIFTMAGLNIRDLLRDILRRWRDENYLGMVEGAGMFIEEIHPEGFSLYVHLDVRAVCLLEAIVQHLTAAIICSLAVEFDHATGGERVHLIDLHFEVLDNLLE [N82A] | disrupting interaction |

Variants of: B1
Settings: with PML
Remark: another data set of the same source

| Variant | effect of a mutation on the interaction |
| --- | --- |
| MIRCLRLKVEGALEQIFTMAGLNIRDLLRDILRRWRDENYLGMVEGAGMFIEEIHPEGFSLYVHLDVRAVCLLEAIVQHLTNAIICSLAVEFDHATGGERVHAIDLHFEVLDNLLE [L103A] | disrupting interaction |
